From publication PMC9172074, “A microfluidic paper analytical device using capture aptamers for the detection of PfLDH in blood matrices”

How the values were obtained:
[1] = molecular target: T1, rPfLDH (recombinant Plasmodium falciparum lactate dehydrogenase) (Plasmodium falciparum, UniProt Q76NM3 1-316); assay: paper capture, Malstat enzyme activity colorimetry; Zone 1, apparent Kd (fit 23.643 ± 10.806); PBS pH 7.4 (10 mM Na2HPO4, 1.8 mM KH2PO4 [printed KH2HPO4], 2.7 mM KCl, 137 mM NaCl), room temperature, 30 min; pL1: 20 mM Tris, 50 mM NaCl, 5 mM KCl, 5 mM MgCl2, 0.01% Tween 20, pH 8.0; conditions: protein: recombinant; chain copies: 4; label: 5' biotin
[2] = molecular target: T1, rPfLDH (recombinant Plasmodium …); assay: paper capture, Malstat enzyme activity colorimetry; Zone 3, apparent Kd; PBS pH 7.4 (10 mM Na2HPO4, 1.8 mM KH2PO4 [printed KH2HPO4], 2.7 mM KCl, 137 mM NaCl), room temperature, 30 min; pL1: 20 mM Tris, 50 mM NaCl, 5 mM KCl, 5 mM MgCl2, 0.01% Tween 20, pH 8.0; conditions: protein: recombinant; chain copies: 4; label: 5' biotin

B1: rLDH7 (ssDNA)
DNA: GCCTGTTGTGAGCCTCCTAACCCAGAATAGGGACTGCTCGGGATTGCGGATGAGTCTGGGTGGGACATGGCATGCTTATTCTTGTCTCCC
Work on B1 yielded a Kd [1] of 24 ± 11 nM and a Kd [2] of 11.4 ± 5 nM.
